Assay results published in patent US20050101769A1 (VLAAMS INTERUNIVERSITAIR INSTITUUT VOOR BIOTECHNOLOGIE VZW, published 2005).

B1: cytoplasmic region of CD30 (receptor, UniProt P28908 407-595, looked up)
chain: CHRRACRKRIRQKLHLCYPVQTSQPKLELVDSRPRRSSTQLRSGASVTEPVAEERGLMSQPLMETCHSVGAAYLESLPLQDASPAGGPSSPRDLPEPRVSTEHTNNKIEKIYIMKADTVIVGTVKAELPEGRGLAGPAEPELEEELEADHTPHYPEQETEPPLGSCSDVMLSVEEEGKEDPLPTAASGK
notes: domain: cytoplasmic region
B2: 4F2d1, TTRAP deletion mutant, amino acids 54 to 140 (other)
chain: MERALNSYFEPPVEESALERRPETISEPKTYVDLTNEETTDSTTSKISPSEDTQQENGSMFSLITWNIDGLDLNNLSERARGVCSYL
notes: Yeast two-hybrid fusion
B3: FADD (other, UniProt Q13158 1-208, looked up)
chain: MDPFLVLLHSVSSSLSSSELTELKFLCLGRVGKRKLERVQSGLDLFSMLLEQNDLEPGHTELLRELLASLRRHDLLRRVDDFEAGAAAGAAPGEEDLCAAFNVICDNVGKDWRRLARQLKVSDTKIDSIEDRYPRNLTERVRESLRIWKNTEKENATVAHLVGALRSCQMNLVADLVQEVQQARDLQNRSGAMSPMSWNSDASTSEAS
B4: LMP-1 (other)
chain: YYHGQRHSDEHHHDDSLPHPQQATDDSGHESDSNSNEGRHHLLVSGAGDGPPLCSQNLGAPGGGPDNGPQDPDNTDDNGPQDPDNTDDNGPHDPLPQDPDNTDDNGPQDPDNTDDNGPHDPLPHSPSDSAGNDGGPPQLTEEVENKGGDQGPPLMTDGGGGHSHDSGHGGGDPHLPTLLLGSSGSGGDDDDPHGPVQLSYYD
B5: cytoplasmic region of TNF-RII (receptor, UniProt P20333 288-461, looked up)
chain: KKKPLCLQREAKVPHLPADKARGTQGPEQQHLLITAPSSSSSSLESSASALDRRAPTRNQPQAPGVEASGAGEARASTGSSDSSPGGHGTQVNVTCIVNVCSSSDHSSQCSSQASSTMGDTDSSPSESPKDEQVPFSKEECAFRSQLETPETLLGSTEEKPLPLGVPDAGMKPS
notes: domain: cytoplasmic region
B6: 4F2d2, TTRAP deletion mutant, amino acids 54 to 236 (other)
chain: MERALNSYFEPPVEESALERRPETISEPKTYVDLTNEETTDSTTSKISPSEDTQQENGSMFSLITWNIDGLDLNNLSERARGVCSYLALYSPDVIFLQEVIPPYYSYLKKRSSNYEIITGHEEGYFTAIMLKKSRVKLKSQEIIPFPSTKMMRNLLCVHVNVSGNELCLMTSHLESTRGHAAE
notes: Yeast two-hybrid fusion
B7: 4F2, TTRAP deletion mutant, amino acids 54 to 362 (other)
chain: MERALNSYFEPPVEESALERRPETISEPKTYVDLTNEETTDSTTSKISPSEDTQQENGSMFSLITWNIDGLDLNNLSERARGVCSYLALYSPDVIFLQEVIPPYYSYLKKRSSNYEIITGHEEGYFTAIMLKKSRVKLKSQEIIPFPSTKMMRNLLCVHVNVSGNELCLMTSHLESTRGHAAERMNQLKMVLKKMQEAPESATVIFAGDTNLRDREVTRCGGLPNNIVDVWEFLGKPKHCQYTWDTQMNSNLGITAACKLRFDRIFFRAAAEEGHIIPRSLDLLGLEKLDCGRFPSDHWGLLCNLDIIL
notes: also called longest TTRAP fragment (aa 54-362); TTRAP/4F2
B8: 4F2d3, TTRAP deletion mutant, amino acids 54 to 273 (other)
chain: MERALNSYFEPPVEESALERRPETISEPKTYVDLTNEETTDSTTSKISPSEDTQQENGSMFSLITWNIDGLDLNNLSERARGVCSYLALYSPDVIFLQEVIPPYYSYLKKRSSNYEIITGHEEGYFTAIMLKKSRVKLKSQEIIPFPSTKMMRNLLCVHVNVSGNELCLMTSHLESTRGHAAERMNQLKMVLKKMQEAPESATVIFAGDTNLRDREVTRC
notes: Yeast two-hybrid fusion
B9: TTRAP (TRAF and TNF receptor associated protein), full-length human (other)
chain: MELGSCLEGGREAAEEEGEPEVKKRRLLCVEFASVASCDAAVAQCFLAENDWEMERALNSYFEPPVEESALERRPETISEPKTYVDLTNEETTDSTTSKISPSEDTQQENGSMFSLITWNIDGLDLNNLSERARGVCSYLALYSPDVIFLQEVIPPYYSYLKKRSSNYEIITGHEEGYFTAIMLKKSRVKLKSQEIIPFPSTKMMRNLLCVHVNVSGNELCLMTSHLESTRGHAAERMNQLKMVLKKMQEAPESATVIFAGDTNLRDREVTRCGGLPNNIVDVWEFLGKPKHCQYTWDTQMNSNLGITAACKLRFDRIFFRAAAEEGHIIPRSLDLLGLEKLDCGRFPSDHWGLLCNLDIIL
notes: Protein of 362 amino acids; In the yeast two-hybrid assays it is a fusion expressed from the prey plasmid (pJG45); also called CD40 receptor associated protein

What was measured:
[1] = target: B7; experiment: yeast two-hybrid, colour formation on X-gal (column = prey, row = bait)
Procedure: (§1) The potential binding of TTRAP to other proteins was assessed using a yeast two-hybrid assay. The experimental outline is similar to the one described for the two-hybrid screening. However, here the plasmids for bait, prey and lacZ reporter were transformed simultaneously into the EGY48 yeast strain. Positive interaction was determined either by the growth phenotype (growth on medium lacking leucine in the presence of galactose, and not in the presence of glucose) or by the blue/white staining on X-gal containing plates (blue colonies only on galactose containing plates, not on glucose containing plates). cDNA's for TRAF2 and for the cytoplasmic regions of CD30, CD40 and TNF-RII were generated by PCR using the pfu polymerase (Promega). PCR fragments encoding RIP, TRADD and FADD were cloned in pCDNA3 (Invitrogen, Carlsbad, Calif.). cDNA of TRAF3 was obtained from the laboratory of Dixit, Dept Pathol., Univ. Michigan Med. School, MI, USA. The color formation was evaluated as strong and fast (++), strong but slow (+), weak and slow (±), none (−) or not determined (nd).

[2] = target: B9; experiment: as above
Procedure: as §1

[3] = target: B7; experiment: yeast two-hybrid, colour formation on X-gal; '-' = none
Procedure: as §1

[4] = target: B5; experiment: as above
Procedure: as §1

[5] = target: B9; experiment: as above
Procedure: as §1

[6] = target: B6; experiment: as above
Procedure: as §1

[7] = target: B8; experiment: as above
Procedure: as §1

[8] = target: the molecule itself; experiment: yeast two-hybrid, colour formation on X-gal (column = prey, row = bait)
Procedure: as §1

[9] = target: the molecule itself; experiment: yeast two-hybrid (in Table I: TTRAP prey with 4F2 bait)

B1: binds [1]; binds [2].

B2: no binding [3]; no binding [4].

B3: no binding [5].

B4: no binding [3]; no binding [5].

B5: no binding [6]; no binding [7]; binds [1]. B5: binds [2].

B6: no binding [3].

B7: binds [8]; binds [2].

B8: no binding [3].

B9: binds [9].
